Like-named read-outs stand apart in the source and are kept apart here.
Legend:
Assay in all cases: fluorescence anisotropy
Prp2 [1] = biological target: T1, Prp2 (UniProt P20095 1-876)
T1 sequence: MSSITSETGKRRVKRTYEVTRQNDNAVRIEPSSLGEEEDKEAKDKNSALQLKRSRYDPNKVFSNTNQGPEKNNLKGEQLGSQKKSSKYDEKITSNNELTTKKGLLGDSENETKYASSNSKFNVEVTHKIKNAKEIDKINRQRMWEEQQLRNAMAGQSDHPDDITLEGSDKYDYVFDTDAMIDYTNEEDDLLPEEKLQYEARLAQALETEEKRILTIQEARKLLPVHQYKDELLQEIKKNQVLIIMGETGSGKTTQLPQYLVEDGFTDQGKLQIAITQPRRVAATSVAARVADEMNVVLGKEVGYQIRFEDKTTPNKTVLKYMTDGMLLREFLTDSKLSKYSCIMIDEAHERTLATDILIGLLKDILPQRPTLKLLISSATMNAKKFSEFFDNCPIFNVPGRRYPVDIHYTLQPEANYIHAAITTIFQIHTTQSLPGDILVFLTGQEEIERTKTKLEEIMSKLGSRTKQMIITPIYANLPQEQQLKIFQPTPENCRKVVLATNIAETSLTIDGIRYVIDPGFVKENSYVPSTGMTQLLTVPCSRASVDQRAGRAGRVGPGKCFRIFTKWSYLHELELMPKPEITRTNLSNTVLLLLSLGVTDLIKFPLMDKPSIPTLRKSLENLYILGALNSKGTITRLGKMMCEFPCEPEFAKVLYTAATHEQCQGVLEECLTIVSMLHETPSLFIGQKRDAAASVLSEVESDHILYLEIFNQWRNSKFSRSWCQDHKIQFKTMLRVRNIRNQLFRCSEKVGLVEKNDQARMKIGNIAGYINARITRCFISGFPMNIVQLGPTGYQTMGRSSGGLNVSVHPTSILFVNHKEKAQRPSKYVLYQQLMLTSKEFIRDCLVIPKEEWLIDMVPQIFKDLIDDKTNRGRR

Prp2 [2] = biological target: T1, Prp2; remark: listed apart in the source
Spp2 = biological target: T2, Spp2 (UniProt Q02521 36-185)
T2 sequence: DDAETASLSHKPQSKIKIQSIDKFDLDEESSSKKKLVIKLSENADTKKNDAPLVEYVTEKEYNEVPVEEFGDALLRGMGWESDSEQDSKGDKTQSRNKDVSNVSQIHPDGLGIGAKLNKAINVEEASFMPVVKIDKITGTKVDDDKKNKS

Prp2;Spp2 = biological target: T3, Prp2;Spp2 (Saccharomyces cerevisiae?;Saccharomyces …, UniProt P20095;Q02521 1-876;36-185, |)
T3 sequence 1: T1 sequence
T3 sequence 2: T2 sequence

B1: 24-nt ssRNA (ssRNA)
RNA: GGCCGCGAGAAAAAAAAAAAAAAA
Kd (Prp2 [1]): 53 ± 5 nM
Kd (Prp2 [2]): 70 ± 11 nM
binding result (Spp2): no binding
binding result (Prp2;Spp2): binds

From publication PMC4285774
